Assays:
[1] = target: T1, protease resistant A43-FceRIa (K43 to A43 variant of recombinant human FceRIa)
T1 chain 1: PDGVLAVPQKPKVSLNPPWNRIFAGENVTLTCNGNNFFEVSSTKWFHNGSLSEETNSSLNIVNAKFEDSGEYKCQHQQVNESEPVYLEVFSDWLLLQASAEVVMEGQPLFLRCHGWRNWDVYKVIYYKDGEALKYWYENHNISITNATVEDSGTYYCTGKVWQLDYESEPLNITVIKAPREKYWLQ
T1 chain 2: HHHHHH

[2] = target: T2, recombinant wild type FceRIa (extracellular region of the alpha chain of the human high-affinity IgE receptor, spacer, 6His)
T2 chain: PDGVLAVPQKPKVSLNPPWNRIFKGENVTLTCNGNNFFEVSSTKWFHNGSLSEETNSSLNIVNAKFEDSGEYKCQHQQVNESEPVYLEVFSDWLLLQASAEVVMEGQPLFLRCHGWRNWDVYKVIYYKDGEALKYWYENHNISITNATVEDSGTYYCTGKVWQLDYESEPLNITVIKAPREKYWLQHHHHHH

B1: plasmin (Sigma P1867) (protein)
chain: KVYLSECKTGNGKNYRGTMSKTKNGITCQKWSSTSPHRPRFSPATHPSEGLEENYCRNPDNDPQGPWCYTTDPEKRYDYCDILECEEECMHCSGENYDGKISKTMSGLECQAWDSQSPHAHGYIPSKFPNKNLKKNYCRNPDRELRPWCFTTDPNKRWELCDIPRCTTPPPSSGPTYQCLKGTGENYRGNVAVTVSGHTCQHWSAQTPHTHNRTPENFPCKNLDENYCRNPDGKRAPWCHTTNSQVRWEYCKIPSCDSSPVSTEQLAPTAPPELTPVVQDCYHGDGQSYRGTSSTTTTGKKCQSWSSMTPHRHQKTPENYPNAGLTMNYCRNPDADKGPWCFTTDPSVRWEYCNLKKCSGTEASVVAPPPVVLLPDVETPSEEDCMFGNGKGYRGKRATTVTGTPCQDWAAQEPHRHSIFTPETNPRAGLEKNYCRNPDGDVGGPWCYTTNPRKLYDYCDVPQCAAPSFDCGKPQVEPKKCPGRVVGGCVAHPHSWPWQVSLRTRFGMHFCGGTLISPEWVLTAAHCLEKSPRPSSYKVILGAHQEVNLEPHVQEIEVSRLFLEPTRKDIALLKLSSPAVITDKVIPACLPSPNYVVADRTECFITGWGETQGTFGAGLLKEAQLPVIENKVCNRYEFLNGRVQSTELCAGHLAGGTDSCQGDSGGPLVCFEKDKYILQGVTSWGLGCARPNKPGVYVRVSRFVTWIEGVMRNN
plasmin cleavage, Base Peak Chromatogram (LC-MS) [1]: complete absence of a cleavage product in the mutant, protease resistant variant of recombinant A43-FceRIa (black line), whereas the wild type receptor digest peak appears at 30 min (grey line)
plasmin cleavage, peptides in the Base Peak Chromatogram (LC-MS) [2]: Site K43 (indicated as peptide K in FIG. 2B) of recombinant wt FceRIa was preferentially cleaved whereas plasmin cleavage sites K31, R40, K201, R199, K196 and K142 (indicated as peptide 1-8 in FIG. 2B) were cleaved to lesser extent
